Consider two substances from patent US7897729.

The target in the experiment is FcγRIII (CD16) (human) (UniProt P08637). Description: cell-based or functional assay.
Sequence of FcγRIII (CD16) (human) (P08637 17-254): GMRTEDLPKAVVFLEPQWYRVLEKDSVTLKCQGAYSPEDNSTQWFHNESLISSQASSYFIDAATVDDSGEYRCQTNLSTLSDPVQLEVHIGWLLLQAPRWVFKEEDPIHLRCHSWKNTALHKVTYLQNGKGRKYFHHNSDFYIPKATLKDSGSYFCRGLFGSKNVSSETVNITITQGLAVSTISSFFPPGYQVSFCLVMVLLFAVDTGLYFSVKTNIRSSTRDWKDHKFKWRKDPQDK

As to anti-CD16 mAb 3G8 (antibody), the IFN-γ secretion from PBMC, immobilized anti-CD16 mAb (10 µg/ml) + IL-2 is 9.85 ng/mL; the TNF-α secretion from PBMC, immobilized anti-CD16 mAb (10 µg/ml) + IL-2 was determined as 3.32 ng/mL; the proliferative response of PBMC ([3H]thymidine), IL-2 and immobilized anti-CD16 mAb stood at 15500 CPM; the proliferative response of PBMC ([3H]thymidine), immobilized anti-CD16 mAb alone, no IL-2 turned out to be 592 CPM.
As for heat aggregated IgG (AIG), the IFN-γ secretion from PBMC, aggregated IgG (40 µg/ml) + IL-2 turned out to be 13 ng/mL; the TNF-α secretion from PBMC, aggregated IgG (40 µg/ml) + IL-2 worked out at 2.46 ng/mL; the fold induction of PBMC proliferation over IL-2, 125 µg/mL of AIG stood at 16 fold; the proliferative response of PBMC, 125 µg/mL of AIG and IL-2 came to 17400 CPM.
